pKi: −log10 of the molar value. Values belong to the substance of their own block, whether it stands above or below them.
Tests used:
[1] = target: human plasma kallikrein (human) (UniProt P03952)
[2] = target: bovine factor Xa (bovine)
[3] = target: bovine pancreatic trypsin (bovine)
[4] = target: urokinase (uPA) (UniProt P00749)
[5] = target: human plasmin (human)
[6] = target: bovine pancreatic trypsin (bovine); test: native gel or EMSA; 500 ng human thrombin or bovine trypsin in 25 mM Tris-HCl pH 8.0, 190 mM glycine, mixed with increasing boophilin, 15 min at room temperature; 10% Tris-glycine polyacrylamide gel at 4°C, silver-stained
[7] = target: human α-thrombin (human); test: as above
[8] = target: bovine α-thrombin (bovine); test: enzyme inhibition (amidolytic activity, chromogenic substrate); Ki of thrombin inhibition; tight-binding kinetics assumed, apparent (native inhibitor); the conditions of the Ki determination itself are not told
[9] = target: bovine pancreatic trypsin (bovine); test: enzyme inhibition kinetics (progress curves, chromogenic substrate); slow-binding inhibition; second-order rate constant k2/Ki from kobs; 0.2 mM Chromozym TH (trypsin, 6.25 ng/ml) or Chromozym PL (plasmin, 12.5 µg/ml); boophilin 0.1-0.65 µM (trypsin) or 0.04-0.4 µM (plasmin); 45 min at 37°C
[10] = target: recombinant human FVIIa (NovoSeven) (human) (UniProt P08709)
[11] = target: recombinant sc-tPA (UniProt P00750)
[12] = target: human α-FXIIa (human) (UniProt P00748)
[13] = target: recombinant tryptase (UniProt Q15661)
[14] = target: human plasmin (human); test: enzyme inhibition kinetics (progress curves, chromogenic substrate); slow-binding inhibition; second-order rate constant k2/Ki from kobs; 0.2 mM Chromozym TH (trypsin, 6.25 ng/ml) or Chromozym PL (plasmin, 12.5 µg/ml); boophilin 0.1-0.65 µM (trypsin) or 0.04-0.4 µM (plasmin); 45 min at 37°C
Target sequence in this assay (P00747 20-580, chain 1 of 2): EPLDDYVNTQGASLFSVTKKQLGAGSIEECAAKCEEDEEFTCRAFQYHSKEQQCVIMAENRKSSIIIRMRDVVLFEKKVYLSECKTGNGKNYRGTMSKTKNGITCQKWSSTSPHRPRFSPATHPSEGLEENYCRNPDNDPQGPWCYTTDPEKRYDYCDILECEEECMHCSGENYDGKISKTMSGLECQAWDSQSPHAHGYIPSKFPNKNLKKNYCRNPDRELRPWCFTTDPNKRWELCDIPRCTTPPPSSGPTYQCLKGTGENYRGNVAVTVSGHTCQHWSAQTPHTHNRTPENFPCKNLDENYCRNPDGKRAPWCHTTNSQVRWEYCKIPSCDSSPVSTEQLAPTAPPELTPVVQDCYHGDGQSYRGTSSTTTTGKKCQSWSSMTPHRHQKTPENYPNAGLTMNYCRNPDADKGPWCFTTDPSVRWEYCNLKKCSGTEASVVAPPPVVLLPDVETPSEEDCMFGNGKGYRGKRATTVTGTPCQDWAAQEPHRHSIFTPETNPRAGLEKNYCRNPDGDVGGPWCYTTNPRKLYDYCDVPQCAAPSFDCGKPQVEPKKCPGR
Target sequence in this assay (P00747 581-810, chain 2 of 2): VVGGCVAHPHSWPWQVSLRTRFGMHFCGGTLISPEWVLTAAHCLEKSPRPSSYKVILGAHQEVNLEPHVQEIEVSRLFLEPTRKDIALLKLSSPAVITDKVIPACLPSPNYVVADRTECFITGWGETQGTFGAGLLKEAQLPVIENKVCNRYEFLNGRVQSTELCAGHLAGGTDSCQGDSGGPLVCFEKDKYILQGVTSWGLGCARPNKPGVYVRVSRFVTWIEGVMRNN

human plasma kallikrein (human), sequence (P03952 20-390, chain 1 of 2): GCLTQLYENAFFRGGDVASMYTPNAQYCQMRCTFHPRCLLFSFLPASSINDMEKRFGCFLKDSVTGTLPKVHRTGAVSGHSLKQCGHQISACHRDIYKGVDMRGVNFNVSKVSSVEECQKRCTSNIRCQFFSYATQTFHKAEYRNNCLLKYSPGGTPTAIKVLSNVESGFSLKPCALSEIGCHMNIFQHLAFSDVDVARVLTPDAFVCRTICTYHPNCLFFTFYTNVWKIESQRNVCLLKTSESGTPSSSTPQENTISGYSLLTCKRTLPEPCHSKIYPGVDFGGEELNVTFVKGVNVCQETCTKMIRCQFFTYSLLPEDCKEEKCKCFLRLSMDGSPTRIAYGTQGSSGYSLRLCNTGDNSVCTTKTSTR
human plasma kallikrein (human), sequence (P03952 391-638, chain 2 of 2): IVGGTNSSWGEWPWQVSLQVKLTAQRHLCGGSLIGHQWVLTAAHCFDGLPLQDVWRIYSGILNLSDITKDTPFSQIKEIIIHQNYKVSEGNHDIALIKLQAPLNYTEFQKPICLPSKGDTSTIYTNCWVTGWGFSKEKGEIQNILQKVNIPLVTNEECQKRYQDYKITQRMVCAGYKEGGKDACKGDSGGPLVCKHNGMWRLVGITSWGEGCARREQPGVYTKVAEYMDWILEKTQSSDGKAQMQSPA
recombinant sc-tPA, sequence (P00750 36-562): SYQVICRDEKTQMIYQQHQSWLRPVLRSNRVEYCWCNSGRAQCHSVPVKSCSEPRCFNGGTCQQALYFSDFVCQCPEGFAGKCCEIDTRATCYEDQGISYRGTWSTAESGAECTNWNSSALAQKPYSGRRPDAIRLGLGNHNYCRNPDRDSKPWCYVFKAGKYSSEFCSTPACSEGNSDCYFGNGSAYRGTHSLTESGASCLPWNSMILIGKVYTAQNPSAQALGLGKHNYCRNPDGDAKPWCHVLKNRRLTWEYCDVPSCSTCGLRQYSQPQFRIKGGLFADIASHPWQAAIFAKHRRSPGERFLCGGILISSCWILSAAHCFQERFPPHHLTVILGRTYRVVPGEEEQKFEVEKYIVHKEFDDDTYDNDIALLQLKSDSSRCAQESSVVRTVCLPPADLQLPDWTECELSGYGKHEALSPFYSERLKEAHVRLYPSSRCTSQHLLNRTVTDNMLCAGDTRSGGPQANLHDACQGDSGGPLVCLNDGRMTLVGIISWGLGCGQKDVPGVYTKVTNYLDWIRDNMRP
recombinant tryptase, sequence (Q15661 19-275): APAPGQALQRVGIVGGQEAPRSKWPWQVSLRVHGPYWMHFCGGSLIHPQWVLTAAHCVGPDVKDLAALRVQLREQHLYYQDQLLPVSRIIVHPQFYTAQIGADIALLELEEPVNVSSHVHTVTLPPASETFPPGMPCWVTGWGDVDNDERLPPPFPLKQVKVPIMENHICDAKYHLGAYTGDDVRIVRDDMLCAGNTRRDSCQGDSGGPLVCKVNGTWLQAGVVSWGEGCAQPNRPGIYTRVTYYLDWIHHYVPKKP
human α-FXIIa (human), sequence (P00748 20-372, chain 1 of 2): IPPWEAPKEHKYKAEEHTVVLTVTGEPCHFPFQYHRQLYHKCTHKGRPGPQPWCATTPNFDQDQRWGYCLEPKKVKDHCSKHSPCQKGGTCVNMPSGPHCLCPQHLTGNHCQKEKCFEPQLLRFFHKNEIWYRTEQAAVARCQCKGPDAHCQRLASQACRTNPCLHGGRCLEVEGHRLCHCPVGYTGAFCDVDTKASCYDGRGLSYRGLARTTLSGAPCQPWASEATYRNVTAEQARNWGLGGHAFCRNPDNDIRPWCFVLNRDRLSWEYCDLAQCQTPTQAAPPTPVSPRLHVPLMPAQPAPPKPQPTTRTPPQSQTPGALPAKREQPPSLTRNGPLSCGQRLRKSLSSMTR
human α-FXIIa (human), sequence (P00748 373-615, chain 2 of 2): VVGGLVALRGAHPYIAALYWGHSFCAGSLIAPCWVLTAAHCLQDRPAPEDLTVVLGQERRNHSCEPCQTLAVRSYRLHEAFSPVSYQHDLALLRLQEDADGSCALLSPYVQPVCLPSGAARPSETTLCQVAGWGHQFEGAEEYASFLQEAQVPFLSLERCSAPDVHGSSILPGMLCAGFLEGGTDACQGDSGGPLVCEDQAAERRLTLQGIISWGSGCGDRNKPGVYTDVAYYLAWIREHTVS
recombinant human FVIIa (NovoSeven) (human), sequence (P08709 61-212, chain 1 of 2): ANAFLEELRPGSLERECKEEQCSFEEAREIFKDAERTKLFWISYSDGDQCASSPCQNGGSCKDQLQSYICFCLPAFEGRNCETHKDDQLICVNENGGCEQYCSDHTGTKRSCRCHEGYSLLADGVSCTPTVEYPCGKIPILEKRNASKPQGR
recombinant human FVIIa (NovoSeven) (human), sequence (P08709 213-466, chain 2 of 2): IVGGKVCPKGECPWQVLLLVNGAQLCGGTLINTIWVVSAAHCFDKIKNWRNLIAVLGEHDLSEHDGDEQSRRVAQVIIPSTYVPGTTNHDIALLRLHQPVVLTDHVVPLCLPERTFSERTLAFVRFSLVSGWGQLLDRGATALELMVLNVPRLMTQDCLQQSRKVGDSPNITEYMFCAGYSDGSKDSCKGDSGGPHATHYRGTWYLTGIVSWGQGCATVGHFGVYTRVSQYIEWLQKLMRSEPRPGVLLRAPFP

Inhibition of amidolytic activity (%), native inhibitor 3.53 µM, substrate Chromozym PK [1]: 66%
Inhibition of amidolytic activity (%), native inhibitor 3.53 µM, substrate Chromozym X [2]: 10%
Inhibition of amidolytic activity (%), native inhibitor 3.53 µM, substrate Pefachrome tPA [3]: 97%
Inhibition of amidolytic activity (%), native inhibitor 3.53 µM, substrate Pefachrome uPA [4]: 16%
Inhibition of amidolytic activity (%), native inhibitor 3.53 µM, substrate Chromozym PL [5]: 87%
stoichiometry N [6]: 1
stoichiometry N [7]: 1
pKi [8]: 8.74
second order rate constant k2/Ki [9]: 308000 M⁻¹ s⁻¹
Substance: native boophilin (natural protein)

Inhibition of amidolytic activity (%), recombinant inhibitor (C-terminal domain) 15.2 µM, substrate Chromozym PK [1]: 0%
Inhibition of amidolytic activity (%), recombinant inhibitor (C-terminal domain) 15.2 µM, substrate Chromozym X [2]: 0%
Inhibition of amidolytic activity (%), recombinant inhibitor (C-terminal domain) 15.2 µM, substrate Pefachrome tPA [3]: 80%
Inhibition of amidolytic activity (%), recombinant inhibitor (C-terminal domain) 15.2 µM, substrate Chromozym tPA [10]: 0%
Inhibition of amidolytic activity (%), recombinant inhibitor (C-terminal domain) 15.2 µM, substrate Pefachrome tPA [11]: 2%
Inhibition of amidolytic activity (%), recombinant inhibitor (C-terminal domain) 15.2 µM, substrate Pefachrome FXIIa [12]: 0%
Inhibition of amidolytic activity (%), recombinant inhibitor (C-terminal domain) 15.2 µM, substrate Chromozym TH [13]: 8%
Inhibition of amidolytic activity (%), recombinant inhibitor (C-terminal domain) 15.2 µM, substrate Pefachrome uPA [4]: 17%
Inhibition of amidolytic activity (%), recombinant inhibitor (C-terminal domain) 15.2 µM, substrate Chromozym PL [5]: 25%
Substance: isolated C-terminal boophilin domain (domain or fragment)

Substance: recombinant boophilin (full-length mature protein, variant H2) (from UniProt Q8WPI2 16-142) (natural protein)
Inhibition of amidolytic activity (%), recombinant inhibitor (full-length) 2.36 µM, substrate Pefachrome tPA [3]: 98%
Inhibition of amidolytic activity (%), recombinant inhibitor (full-length) 2.36 µM, substrate Chromozym PL [5]: 95%
pKi [8]: 8.47
second order rate constant k2/Ki [9]: 384000 M⁻¹ s⁻¹
second order rate constant k2/Ki [14]: 259000 M⁻¹ s⁻¹

— PMC2230226
